# Reference: patent EP4527855A2
# B1: Lead CXCR5 Antibody (humanized IgG4 anti-CXCR5 antibody comprising a heavy chain of SEQ ID NO: 25 and a light chain of SEQ ID NO: 26) (antibody, V domains shown)
# VH: QVQLKESGPGLVAPSESLSITCTVSGFSLIDYGVNWIRQPPGKGLEWLGVIWGDGTTYYNPSLKSRLSISKDNSKSQVFLKVTSLTTDDTAMYYCARIVYWGQGTLVTVSA
# VL: DIVMTQAAPSVAVTPGASVSISCRSSKSLLHSSGKTYLYWFLQRPGQSPQLLIYRLSSLASGVPDRFSGSGSGTAFTLRISRVEAEDVGVYYCMQHLEYPYTFGGGTKLEIKR
# How the values were obtained:
# [1] = target: 28mer peptide of the CXCR5 antigen; assay: Antigen ELISA, relative EC50 against the reference; 100 mg/mL formulation, 15 months at +5°C
# [2] = target: 28mer peptide of the CXCR5 antigen; assay: Antigen ELISA, relative EC50 against the reference; 100 mg/mL formulation, 18 months at -20°C
# [3] = target: 28mer peptide of the CXCR5 antigen; assay: Antigen ELISA, relative EC50 against the reference; 100 mg/mL formulation, 6 months at +5°C
# [4] = target: 28mer peptide of the CXCR5 antigen; assay: Antigen-ELISA on the 28mer CXCR5 peptide, relative EC50 against the current antibody standard; DS in PBS, release
# [5] = target: 28mer peptide of the CXCR5 antigen; assay: Antigen ELISA, relative EC50 against the reference; 100 mg/mL formulation, -20°C study, initial
# [6] = target: 28mer peptide of the CXCR5 antigen; assay: Antigen ELISA, relative EC50 against the reference; 100 mg/mL formulation, 12 months at -20°C
# [7] = target: 28mer peptide of the CXCR5 antigen; assay: Antigen-ELISA on the 28mer CXCR5 peptide, relative EC50 against the standard; DS in PBS, 1 month at 5°C
# [8] = target: 28mer peptide of the CXCR5 antigen; assay: Antigen ELISA, relative EC50 against the reference; 100 mg/mL formulation, 9 months at +5°C
# [9] = target: 28mer peptide of the CXCR5 antigen; assay: Antigen-ELISA on the 28mer CXCR5 peptide, relative EC50 against the standard; DS in PBS, 3 months at -20°C
# [10] = target: 28mer peptide of the CXCR5 antigen; assay: Antigen ELISA, relative EC50 against the reference; 100 mg/mL formulation, 6 months at -20°C
# [11] = target: 28mer peptide of the CXCR5 antigen; assay: Antigen ELISA, relative EC50 against the reference; 100 mg/mL formulation, +25°C/60% RH study, initial
# [12] = target: 28mer peptide of the CXCR5 antigen; assay: Antigen-ELISA on the 28mer CXCR5 peptide, relative EC50 against the standard; DS in PBS, 3 months at 25°C
# [13] = target: 28mer peptide of the CXCR5 antigen; assay: Antigen ELISA, relative EC50 against the reference; 100 mg/mL formulation, 9 months at -20°C
# [14] = target: 28mer peptide of the CXCR5 antigen; assay: Antigen ELISA, relative EC50 against the reference; 100 mg/mL formulation, 3 months at -20°C
# [15] = target: 28mer peptide of the CXCR5 antigen; assay: Antigen ELISA, relative EC50 against the reference; 100 mg/mL formulation, +5°C study, initial
# [16] = target: 28mer peptide of the CXCR5 antigen; assay: Antigen-ELISA on the 28mer CXCR5 peptide, relative EC50 against the standard; DS in PBS, 1 month at -20°C
# [17] = target: 28mer peptide of the CXCR5 antigen; assay: Antigen ELISA, relative EC50 against the reference; 100 mg/mL formulation, 18 months at +5°C
# [18] = target: 28mer peptide of the CXCR5 antigen; assay: Antigen ELISA, relative EC50 against the reference; 100 mg/mL formulation, 3 months at +25°C/60% RH
# [19] = target: 28mer peptide of the CXCR5 antigen; assay: Antigen ELISA, relative EC50 against the reference; 100 mg/mL formulation, 3 months at +5°C
# [20] = target: 28mer peptide of the CXCR5 antigen; assay: Antigen-ELISA on the 28mer CXCR5 peptide, relative EC50 against the standard; DS in PBS, 3 months at 5°C
# [21] = target: 28mer peptide of the CXCR5 antigen; assay: Antigen ELISA, relative EC50 against the reference; 100 mg/mL formulation, 6 months at +25°C/60% RH
# [22] = target: 28mer peptide of the CXCR5 antigen; assay: Antigen ELISA, relative EC50 against the reference; 100 mg/mL formulation, 1 month at +25°C/60% RH
# [23] = target: 28mer peptide of the CXCR5 antigen; assay: Antigen ELISA, relative EC50 against the reference; 100 mg/mL formulation, 1 month at +5°C
# [24] = target: 28mer peptide of the CXCR5 antigen; assay: Antigen ELISA, relative EC50 against the reference; 100 mg/mL formulation, 1 month at -20°C
# [25] = target: 28mer peptide of the CXCR5 antigen; assay: Antigen ELISA, relative EC50 against the reference; 100 mg/mL formulation, 12 months at +5°C
# [26] = target: 28mer peptide of the CXCR5 antigen; assay: Antigen-ELISA on the 28mer CXCR5 peptide, relative EC50 against the standard; DS in PBS, 1 month at 25°C
binder,measurement,setting,value
B1,"Potency (Antigen ELISA), EC50 value in comparison to reference",[1],114%
same,"Potency (Antigen ELISA), EC50 value in comparison to reference",[2],127%
same,"Potency (Antigen ELISA), EC50 value in comparison to reference",[3],97%
same,Ag-ELISA EC50 % (relative to standard),[4],100%
same,"Potency (Antigen ELISA), EC50 value in comparison to reference",[5],75%
same,"Potency (Antigen ELISA), EC50 value in comparison to reference",[6],96%
same,Ag-ELISA EC50 % (relative to standard),[7],83%
same,"Potency (Antigen ELISA), EC50 value in comparison to reference",[8],92%
same,Ag-ELISA EC50 % (relative to standard),[9],93%
same,"Potency (Antigen ELISA), EC50 value in comparison to reference",[10],96%
same,"Potency (Antigen ELISA), EC50 value in comparison to reference",[11],75%
same,Ag-ELISA EC50 % (relative to standard),[12],108%
same,"Potency (Antigen ELISA), EC50 value in comparison to reference",[13],101%
same,"Potency (Antigen ELISA), EC50 value in comparison to reference",[14],84%
same,"Potency (Antigen ELISA), EC50 value in comparison to reference",[15],75%
same,Ag-ELISA EC50 % (relative to standard),[16],132%
same,"Potency (Antigen ELISA), EC50 value in comparison to reference",[17],119%
same,"Potency (Antigen ELISA), EC50 value in comparison to reference",[18],96%
same,"Potency (Antigen ELISA), EC50 value in comparison to reference",[19],95%
same,Ag-ELISA EC50 % (relative to standard),[20],112%
same,"Potency (Antigen ELISA), EC50 value in comparison to reference",[21],104%
same,"Potency (Antigen ELISA), EC50 value in comparison to reference",[22],121%
same,"Potency (Antigen ELISA), EC50 value in comparison to reference",[23],105%
same,"Potency (Antigen ELISA), EC50 value in comparison to reference",[24],107%
same,"Potency (Antigen ELISA), EC50 value in comparison to reference",[25],93%
same,Ag-ELISA EC50 % (relative to standard),[26],106%
